# Test results from the RNAGym collection of RNA variant scans (doi:10.1073/pnas.2313332121).
# B1: TPR t1 (parent)
# chain: GACCAAUCUGCCCUCAGAGCUCGAGAACAUCUUCGGAUGCAGAGGAGGCAGGCUUCGGUGGCGCGAUAGCGCCAACGUCCUCAACCUCCAAUGCAUCCCACCACAUGAUGAUGCCUGAAGAGCCUUGGUUUUUUG
# Variants of: B1
# Assay: polymerase ribozyme fitness, log enrichment relative to wild type (log ratio); higher = more active; in vitro selection for triplet polymerase activity
# In short: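 For each subunit of a heterodimeric triplet polymerase ribozyme, a mutant library was built by PCR and transcribed, then taken through a single in vitro selection round in triplicate. Selection involved annealing to a biotinylated primer, the partner subunit and triplets, incubation frozen at −7 °C, gel excision of extended constructs, capture on streptavidin beads and RT-PCR. Genotypes were retained after Illumina sequencing of inputs and outputs only with ≥10 input reads and ≥1 read in each output. Fitness is defined as the logarithm of a genotype's enrichment relative to wild-type enrichment, using inverse-variance-weighted averages across replicates, with the logarithm taken to base 2.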
row,Variant,polymerase ribozyme fitness (log ratio)
1,GACCAAUCUGCCCUCAGAGCUCGAGAACUUCUUCGGAUGCAGAGGAAGCAGGCUUCGGUGGUGCGAUAGCGCCAACGUCCUUAACCUCCAAUGCAUCCCACCACAUGAUGAUGCCUCAAGAGCCUUGGUUUUUUG,-5.79
2,GACCAAUCUGCCCUCAGAGCUCGAGAACUUCUUCGGAUGCAGAUGAGGCAGGCUUCGGUGGCGCGAUAGCGCCAACGUCCUCAACCUCCAAUGCAUCCCACCACAUGAUGAUGCCUGAAGAGCCUUGGUUUUUUG,-3.06
3,GACCAAUCUGCCCUCAGAGCUCGAGAACUUCUUCGGAUGCAGAGGAGGCAGGCUUCGGUCGCGCGAUAGCGCCAACGUCCUCAACCUCCAAUGCAUCCCACCACAUGAUGAUGCCUGAAGAGCCUUGGUUUUUUG,-2.06
4,GACCAAUCUGCCCUCAGAGCUCGAGAACUUCUUCGGAUGCAGAGGAGGCAGGCUUCGGUGGCGCGAUAGCGCCAACGUCCUCAACCUCCAAUGCAUCCCACCACAUGAUGAAGCCUGAAGAGCCUGGGUUUUUUG,-2.25
5,GACCAAUCUGCCCUCAGAGCUCGAGAACUUCUUCGGAUGCAGAGGAGGCAGGCUUCGGUGGCGCGAUAGCGCCAACGUCCUCAACCUCCAAUGCAUCCCACCACAUGAUGAUGCCUAAAGAGCCUUGGUUUUUUG,-3.25
6,GACCAAUCUGCCCUCAGAGCUCGAGAACUUCUUCGGAUGCAGAGUAGGCAGGCUUCGGUGGCGCGAUAUCGCCAACGUCCUCAACCUCCAAUGCAUCCCACCACAUGAUGAUGCCUGAAGAGCCUUGGUUUUUUG,-2.7
7,GACCAAUCUGCCCUCAGAGCUCGAGAACUUCUUCGGAUGCAGAGUAGGCAGGCUUCGGUGGCGCGAUAGCGCCAACGUCCUCAACCUCCAAUGCAUCCCACCACAUGAUGAUGCCUGAAGAGCCUUGGUUUUUUG,-3.1
8,GACCAAUCUGCCCUCAGAGCUCGAGAACUUCUUCGGAUGCAGAGGAGGCAGGCUUCGGUGGCGCGAUAUCGCCAACGUCCUCAACCUCCAAUGCAUCCCACCACAUGAUGAUGCCCCAAGAGCCUUGGUUUUUUG,-1.83
9,GACCAAUCUGCCCUCAGAGCUCGAGAACUUCUUCGGAUGCAGAGUAGGCAGGCUUCGGUGGCGCGAUAGCGCUAACGUCCUCAACCUCCAAUGCGUCCCACCACAUGAUGAUGCCUGAAGAGCCUUGGUUAUUUG,-4.04
10,GACCAAUCUGCCCUCAGAGCUCGAGAACUUCUUCGGAUGCAGAGGAGGCAGGCUUCGCUGGCGCGAUAGCGCCAACGUCCUCAACCUCCAAUGCAUCCCACCACAUGAUGAUGCCUGAACAGCAUUGGUUUUUUG,-1.02
11,GACCAAUCUGCCCUCAGAGCUCGAGAACUUCUUCGGAUGCAGAGUAGGCAGGCUUCGGUGGCGCGAUAGCGCCAACGUCCUCAACCUCCAAUGCAUCCCACCACAUGAUGAUGCCUGAAAAGCCUUGUUUUUUUG,-3.92
12,GACCAAUCUGCCCUCAGAGCUCGAGAACUUCUUCGGAUGCAGAGUAGGCAGGCUUCGGUGGCGCGAUAGCGCCGACGUCCUCAACCUCCAAUGCAUCCCACCACAUGAUGAUGCCUGAAGAGCCUUGGUUUUUUG,-3.27
13,GACCAAUCUGCCCUCAGAGCUCGAGAACUUCUUCGGAUGCAGAGGAGGCAGGCUUCGGUGGCGCGAUAGCGCCAACGUCCUCAACCUCCAAUGCAUCCCACCACAUGAUGAUGCCUGAAGAGCCUUCGUUUUUUG,-3.29
14,GACCAAUCUGCCCUCAGAGCUCGAGAACUUCUUCGGAUGCAGAGGAGGCAGGCUUCGGUGGCGCGAUAGCGCCAACGUCCUCAACCUCCAAUGCAUCCCACCACAUGAUGAUGCCUGAAGAGCCUUUGUUUUUUG,-3.66
15,GACCAAUCUGCCCUCAGAGCUCGAGAACUUCUUCGGAUGCAGAGGAGGCAGACUUCGGUGGCGCGAUAGCGCCAACGUCCUCAACCUCCAAUGCAUCCCACCACAUGAUGAUGCCUGAAGAGCCUUGGUUUUUUG,-1.8
16,GACCAAUCUGCCCUCAGAGCUCGAGAACUUCUUCGGAUGCAGAGGAGGCAGGCUUCGGGGGCGCGAUAGCGCCAACGGCCUCAACCUCCAAUGCAUCCCACCACAUGAUGAUGCCUGAAUAGCCUUGCUUUUUAG,-2.27
17,GACCAAUCUGCCCUCAGAGCUCGAGAACUUCUUCGGAUGCAGAGGAGGCAGGCUUCGGUGGCUCGAUAGCGCCAACGCCCUCAACCUCCAAUGCAUCCCACCACAUGAUGAUGCCUGAAGAGCCUUGGUUUUUUG,-4.96
18,GACCAAUCUGCCCUCAGAGCUCGAGAACUUCUUCGGAUGCAGAGGAGGCAGGCGGCGGUGGCGCGAUAGCGCCAACGUCCUCAACCUCCAAUGCAUCCCAUCACAUGAUGAUGCCUGAAGAGCCUUGGUUUUUUG,-4.04
19,GACCAAUCUGCCCUCAGAGCUCGAGAACUUCUUCGGAUGCAGAGCAGGCAGGCUUCGGUGACGCGAUAGCGCCAACGUCCUCAACCUCCAAUGCAUCCCACCACAUGAUGGUGCCUGAAGAGCGUUGGUUUUUUG,-3.05
20,GACCAAUCUGCCCUCAGAGCUCGAGAACUUCUUCGGAUGCAGAGCAGGCAGGCUGCGGUGGCGUGAUAGCGCCAACGUCCUCAACCUCCAAUUCAUCCCACCACAUGAAGAUGCCUUAAGAGCCUUGGUUUUUUG,-5.42
21,GACCAAUCUGCCCUCAGAGCUCGAGAACUUCUUCGGAUGCAGAGGAGGCAGGCUUCGGUGGCGCGAUAGCGCCAACGUCCUCAACCUCCAAUGCAUCCCACCACAUGAUGAAGCCUGAAGAGCCUUGGUUUUUUG,-0.754
